Experimental data as given in patent US11066655B2, “RNA polymerase, methods of purification and methods of use” (President and Fellows of Harvard College, priority 2013, dated 2021).
Entries after “also recorded” stand apart in the source; their conditions may differ.

Experiments:
[1] = Activity of Syn5 RNAP-NP (gel); assay type: biochemical
From the text: FIG. 18 depicts gels showing expression and activity of Syn5 RNAP-NP.
(§1) The wild-type Syn5 RNA polymerase gene was modified as follows to improve expression in E. coli cells. Nucleotides in Syn5 RNA polymerase gene (No. 808-825) CCA TTG GGC ACC CGT AAG (SEQ ID NO:78) encoding Pro Leu Gly Thr Arg Lys (SEQ ID NO:79) were mutated to CCT CTT GGT ACG CGC AAG (SEQ ID NO:80) without changing the amino acids encoded, and the Syn5 promoter A TTG GGC ACC CGT AA (SEQ ID NO:81) within this region was removed (FIG. 16). Thus, when expressed in E. coli, the enzyme produced by the modified gene would not start transcription from its own gene, enabling the cells to grow much faster (FIG. 17) and yield at least 5 times more enzyme than cells expressing wild-type Syn5 RNAP.

E. coli BL21 (DE3) = test: Growth curve of E. coli expressing Syn5 RNA polymerase from wild-type or modified vector; assay type: cell-based; details: versus vector expressing wild-type Syn5 RNAP
From the text: FIG. 17 graphically depicts a growth curve of E. coli BL21 (DE3) expressing Syn5 RNA polymerase from wild-type (WT, Syn5 RNAP-pET24a) or modified (Syn5 RNAP-NP-pET24a) vector.
as §1
E. coli BL21(DE3) was transformed with plasmid Syn5 RNAP-NP-pET24 encoding an N-terminal His-tagged Syn5 RNA polymerase. Cells were grown at 37° C. until they reached an OD of 1.2, at which point the temperature was reduced to 25° C. and IPTG was added at final concentration of 0.5 mM. Cells were grown an additional 4 hours before collection. The purification procedure used is described in “Zhu B, Tabor S, Richardson CC. (2014) Syn5 RNA polymerase synthesizes precise run-off RNA products. […]

[2] = system: template for a 2.7 knt RNA or human mitochondrial tRNA^ProUGG; test: 2′-F-dNTP incorporation by Syn5 RNA polymerase Y564F; assay type: biochemical
From the text: FIGS. 28A, 28B, 28C and 28D depict gels showing a preference for 2′-F-dC/UTP over rC/UTP by Syn5 RNAP-Y564F.
Syn5 RNA polymerases containing Y564F and/or Y574F mutation were constructed using a known PCR mutagenesis method (see Higuchi et al., Nucleic Acids Res. 16:7351-7367 (1988) hereby incorporated by reference in its entirety), expressed and purified using known methods. The wild type gene background for the mutants was also modified, with the internal Syn5 promoter removed to reduce toxicity and increase the yield of the protein when expressed in E. coli. Purified proteins were analyzed by SDS-PAGE. The mutants were used to incorporate 2′-F-dNTPs as described below.
The reaction components were incubated at 37° C. for 4 hrs. 0.4 µl of the reaction mixture was loaded onto 2% agarose gel or 10% TBE gel and stained with ethidium bromide. Results are shown in FIG. 28A, FIG. 28B, FIG. 28C and FIG. 28D. The Y564F mutation does change the recognition of the 2′-group in the nucleotide substrates by Syn5 RNA polymerase. […] See FIG. 28A lane 4 vs 3; FIG. 28B lane 9-11 vs 6; FIG. 28C lane 11-13 vs 8).

| Molecule | enzymatic activity versus wild-type [1] | toxicity to host cells (E. coli BL21 (DE3)) | substrate preference 2′-F-dC/UTP versus rC/UTP ([2]; Mg buffer, 37° C.) | synthesis of long 2′-F RNA ([2]; low enzyme concentration) | transcript with all four 2′-F-dNMPs ([2]; template starting with C) | discrimination to 2′-F-dATP and 2′-F-dGTP ([2]; versus wild type) |
| --- | --- | --- | --- | --- | --- | --- |
| Syn5 RNAP-NP: Syn5 RNAP from modified gene (SEQ ID NO:83) with internal Syn5 promoter removed by silent mutations; same amino acids as wild-type (protein, Syn5 RNAP-NP, same amino acids as wild-type) MSFDLIARQLQRETEAAELARKRLQDARREANERSYASSNIESRKAIATFLDPIAQRIGERLFTLRRGTGAVDAAEVYKHLKNADHHHLALITMKTALDVLGKDPEPQIQQLTTAIGRNIQLELRLTYYAEENPELYKQASRFFHAGTGTRQKATVIKLKFNREGIEWDQWSRVTCHKVGQWLMLAMADVTGWIERATDRTSGGRKTKTRICYSREFLQHRDTILAAAEQLAFCQWPMLCPPIEWSNDHNGGYLSEQIRRVNPLIRKTGPLGTRKQGDIPLAMLNNLQGQAYKVNPEVLDIANHCYESNVTVGKFIRHAPLPVPPSPGEDCTEDQLTAYKRARREAEDFNAQISQKNWRTTEVMYVARKYADEASFWMPASFDYRGRVYFLNTALNPQGTDFDKALLYFAEEGPVNEWWLSFHVATTYGLDKETMVNRVQWARDNHELIDRIASDPVRHTEWHDADEPWCFLAACLEYKACVIDGTKQTSGLPIGIDATCSGLQHLAAMTRCGRTAALVNVTPTDKPADAYKTVAQASLKHLPKEQHEWITRKVTKRPVMCTPYGVTMSSARGYIRDQLVKDGHKEDLRSPGVLNGIVKAIFNEAIPEVIPGPVQVMAWLKRSAGQIIDRGDSTITWTTPSGFEVVQDLKKSKTYEVKTRIMGGARIKLQVGDGFTDEPDRDHHKSALAPNVVHSNDASLLHLTFAFWDKPFTVIHDCVLGRSCDMDQMGSDIRLHFAEMYKADVMQDWADQVGVELPVDLIKNTLDIDSVNQSLYFFS | same enzymatic activity as the wild-type Syn5 RNAP; also recorded: comparable enzymatic activity | less toxic to host cells |  |  |  |  |
| Syn5 RNA polymerase Y564F: Syn5 RNA polymerase Y564F mutant for the incorporation of 2′-F-dNTPs (protein, Amino acid sequence of a cyanophage Syn5 RNAP, Syn5 RNA polymerase Y564F mutant for the incorporation of 2′-F-dNTPs) MSFDLIARQLQRETEAAELARKRLQDARREANERSYASSNIESRKAIATFLDPIAQRIGERLFTLRRGTGAVDAAEVYKHLKNADHHHLALITMKTALDVLGKDPEPQIQQLTTAIGRNIQLELRLTYYAEENPELYKQASRFFHAGTGTRQKATVIKLKFNREGIEWDQWSRVTCHKVGQWLMLAMADVTGWIERATDRTSGGRKTKTRICYSREFLQHRDTILAAAEQLAFCQWPMLCPPIEWSNDHNGGYLSEQIRRVNPLIRKTGPLGTRKQGDIPLAMLNNLQGQAYKVNPEVLDIANHCYESNVTVGKFIRHAPLPVPPSPGEDCTEDQLTAYKRARREAEDFNAQISQKNWRTTEVMYVARKYADEASFWMPASFDYRGRVYFLNTALNPQGTDFDKALLYFAEEGPVNEWWLSFHVATTYGLDKETMVNRVQWARDNHELIDRIASDPVRHTEWHDADEPWCFLAACLEYKACVIDGTKQTSGLPIGIDATCSGLQHLAAMTRCGRTAALVNVTPTDKPADAYKTVAQASLKHLPKEQHEWITRKVTKRPVMCTPFGVTMSSARGYIRDQLVKDGHKEDLRSPGVLNGIVKAIFNEAIPEVIPGPVQVMAWLKRSAGQIIDRGDSTITWTTPSGFEVVQDLKKSKTYEVKTRIMGGARIKLQVGDGFTDEPDRDHHKSALAPNVVHSNDASLLHLTFAFWDKPFTVIHDCVLGRSCDMDQMGSDIRLHFAEMYKADVMQDWADQVGVELPVDLIKNTLDIDSVNQSLYFFS |  |  | prefers 2′-F-dCTP and 2′-F-dUTP to canonical rCTP and rUTP | stably synthesizes long RNA containing 2′-F-dCMP and 2′-F-dUMP | Full-length transcript including all four 2′-F-dNMPs was synthesized | reduced |
